In patent US20110034673A1 one finds ADCC activity relative to KM3966 (fold of KM3966) data, which are given here for one molecule.

In the assay the target is human HB-EGF on cells (membrane type and cell membrane-bound HB-EGF of human cancer cell lines) (human) (UniProt Q99075). The experiment in a line: cell-based or functional assay.
Sequence of human HB-EGF on cells (membrane type and cell membrane-bound HB-EGF of human cancer cell lines) (human) (Q99075 63-148 limits assumed): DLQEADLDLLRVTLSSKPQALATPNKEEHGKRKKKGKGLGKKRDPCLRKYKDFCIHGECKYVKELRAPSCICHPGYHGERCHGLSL

B1: anti-HB-EGF humanized antibody HV0LV0 (antibody, V domains shown)
VH: QVQLVQSGAEVKKPGASVKVSCKASGYTFTTYGITWVRQAPGQGLEWMGEIFPGSGNTYYNEKFKGRVTITADKSTSTAYMELSSLRSEDTAVYYCARESFSDGYYGYFDYWGQGTLVTVSS
VL: DIVMTQSPDSLAVSLGERATINCKSSQSLLYSTNQKNSLAWYQQKPGQPPKLLIYWASTRESGVPDRFSGSGSGTDFTLTISSLQAEDVAVYYCQQYYRYPLTFGQGTKLEIK
As to B1, the ADCC activity relative to KM3966 (fold of KM3966) is 0.1.
